Source: patent US20170157165A1

Target: Human FGF2 (manufactured by Peprotech Inc.) (human) (UniProt P09038)
Assay: cell-based or functional assay

Chain of Human FGF2 (manufactured by Peprotech Inc.) (human) (P09038 135-288 limits assumed): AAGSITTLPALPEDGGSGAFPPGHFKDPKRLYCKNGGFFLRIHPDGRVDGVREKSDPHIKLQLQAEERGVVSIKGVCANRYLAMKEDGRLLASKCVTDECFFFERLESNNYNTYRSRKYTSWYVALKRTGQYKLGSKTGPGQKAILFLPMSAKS

Substance: anti-FGF2 antibody Anti-FGF, basic (Ab-3) Mouse mAb (3H3) (manufactured by Calbiochem)
- inhibitory rate (%) of FGF2-dependent growth of HUVEC cells; 3H3 (1 nM) + FGF2 (500 pM): 8.5%
- inhibitory rate (%) of FGF2-dependent growth of HUVEC cells; 3H3 (5 nM) + FGF2 (500 pM): 30%
- inhibitory rate (%) of FGF2-dependent growth of HUVEC cells; 3H3 (25 nM) + FGF2 (500 pM): 100%
